Measured values taken from PMC5015840.

Target: MBP-OsIAA10 (rice)

B1: RDV P2 in RDV-infected rice plants (natural protein)
chain: MAYPNDVRNVWDVYNVFRDVPNREHLIRDIRNGLVTVRNLTNMLTNMERDDQLIIAQLSNMMKSLSIGVEKAQNELSKLKTTDADRAAVLAAYQTSVLNIERNTMLLTGYFKQLVLDLTGYVGASVYPILPFMITGDQSMMVDSIKINMKNVFDDKHEQEIVLPIHPACFVSTITEDTSSVVYADGDELYSVHVRHATMTMYVNVLGETVETRQLSMIGDSIVPDDFAPSLLILRFSQDSVGEVFYLSHDNMKKFLGYGLEYTDKYSIFDVTRRVSTTRNKIPDGFCSVDGVPYLDGWFIYQPSGISADSNICAIYNSYVLDTLRYITECEVDTLRSVYDQTSSTAFSKTDVLTSSLLTMQSNISALSAATPQLANDVITFDSTDLLSLGTVLTVSNEFTADDTILSTSLAGHCQVDYSEGSPQDKSMSISVSCDSSQLASSTVHSYSADILGHGLKGDRNMNLMINVPGLMNPQKVTVDYVYSDGYKLNFASVVAPGAPFWINATLQLSVSPSAHNMLSKLTPLDNDACPGLKAQANTPVLVSMTINLDDATPALGGEVIQNCVFKIHHGDDVYSFVTDFDVISYTSTSGTNCLKLISSVDITSQLPSDMVIYVMNGSPDAAFISGDSVNMSSVDWHQSTSQTVGNYVYTTMKAYWNVTSYDVEARPYTTYVPGKVNFTAVEHADVFVDDYNTGVNSYVIVNSRIYYKGTPLYIEVPSGSFIKVSYFTSPLKNPTVDTYNAEISRNSAYLIKANASLDSVAAMLNNISNRIDAMERLMEPTRAQQIAGVVSSIGGVISLGMPLLGAIVVTIGTIISIADPDKQGIDYHSVANAFMSWCQYAAVCRYEYGLLKRGDEKLDVLSFMPKRVVSDFKNKPDVISLPELGESVLRGSSTDYLDTGINIIYNDMQLLGQGKLSDWLNKTVSKVENNAANFFERNLDKSLANKEVLPMHARVEITQTEKIGDVYRTTILYTGINEGSYLGGDVFASRLGDKNILRMNGFESGPGRFKAIVESTTEVGNFRVVDWTVSGMSRYEIYAAAGEVYPSKDPSHADVQLLYESIVRDLTTRDGSFVLKHHDVLLLPGQLDAFEELIIKNASNYQYAFIGSNCSKLCA
With B1 the half-life of MBP-OsIAA10 in the cell-free degradation assay, RDV-infected against mock-inoculated rice extracts was over 2 fold.
